This test has as its target recombinant CD47 protein (Homo sapiens, UniProt Q08722). Kind of test: SPR, CD47 conjugated to CM5 chip by EDC-NHS. Type of test: binding. The settings on record: CM5 chip, CD47 250 RU, 30 µL/minutes. The method, then:
Specifically, the recombinant CD47 protein was conjugated to the surface of the CM5 chip by a target SPR reaction of 250 RU through an EDC-NHS reaction to be used, and for HBS-P, the sensogram obtained through a process of association for 3 minutes and dissociation for 10 minutes at a flow rate of 30 µL/minutes was analyzed with the BiaEvaluation software using a 1:1 binding model and global fitting.
A general note: SPR reads the build-up and loss of mass on a sensor chip optically.

Sequence of recombinant CD47 protein (Q08722 19-323): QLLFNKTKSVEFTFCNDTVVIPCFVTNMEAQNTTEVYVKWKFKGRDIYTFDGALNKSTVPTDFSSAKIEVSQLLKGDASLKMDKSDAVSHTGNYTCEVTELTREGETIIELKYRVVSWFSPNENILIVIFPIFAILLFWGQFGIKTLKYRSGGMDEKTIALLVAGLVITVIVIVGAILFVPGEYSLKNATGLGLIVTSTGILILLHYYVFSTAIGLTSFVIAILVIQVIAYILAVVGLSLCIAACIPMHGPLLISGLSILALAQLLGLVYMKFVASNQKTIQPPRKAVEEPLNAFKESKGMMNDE

In the case of “Sirpα: pure Sirpα (SEQ ID NO: 25), water-soluble domain of the original CD47 ligand [reference compound]”, the ka stood at 610000 M⁻¹ s⁻¹ and the kd turned out to be 0.37 s⁻¹.

Source of the values: patent US20230322893A1, “CD47 BINDER AND LIPOSOME COMPLEX FOR CANCER TREATMENT” (priority 2020, published 2023).
